Measurements as given in patent US20230085439A1 (UNIVERSITY OF GEORGIA RESEARCH FOUNDATION, published 2023).
Read-outs that look alike come from different tables or passages of the source.

B1: MPE8 (antibody, V domains shown)
VH: EVQLVESGGGLVKPGGSLRLSCAASGFTFSSYSMNWVRQAPGKGLEWVSSISASSSYSDYADSAKGRFTISRDNAKTSLFLQMNSLRAEDTAIYFCARARATGYSSITPYFDIWGQGTLVTVSS
VL: QSVVTQPPSVSGAPGQRVTISCTGSSSNIGAGYDVHWYQQLPGTAPKLLIYDNNNRPSGVPDRFSASKSGTSASLAITGLQAEDEADYYCQSYDRSLSGVFGTGTKVTVL
notes: also called mAb MPE8; MPE8 antibody
B2: MPV201 (antibody, V domains shown)
VH: QVQLVQSGGGGVQPGRSLRLSCAASGFIFSDYGMHWVRQAPGKGLEWVAVISYDGSNQYYADSVKGRFTISRDNSRNTLYLQMNSLRVEDTAVYYCAKDQGRRYYYSSGYLDYWGQGTLVTVSS
VL: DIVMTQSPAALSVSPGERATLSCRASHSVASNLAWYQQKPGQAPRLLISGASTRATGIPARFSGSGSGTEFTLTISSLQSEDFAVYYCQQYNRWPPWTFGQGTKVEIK
notes: also called mAb MPV201
B3: MPV196 (antibody, V domains shown)
VH: QVQLQQWGAGLLKPSETLSLTCAVYGGSFSGYSWTWIRQPPGKGLEWIGEINHSGSTNYNPSLKSRVTISIDTSRNQFSLKLISVTAADTAVYYCARGVRGGYNLWHFDVWGQGTLVTVSS
VL: SYELSQSPSVSVSPGQTARITCSGDKLGNKYASWYQQKPGQSPVLVIYQDDKRPSGIPERFSGSNSGNTATLTIGGTQAMDEADYSCQAWDGRTAVVFGGGTKLTVL
notes: also called mAb MPV196
B4: MPV458 (antibody, V domains shown)
VH: QGKLVESGGGVIQPGRSLRLSCAASGFDFSRYGLHWVRQAPGKGLEWVAVIVYAGSNKYYADSVKGRFTISKDNSKNTMHLQMSDLRTEDTAVYYCARDQAFDLWGQGTMVTVSS
VL: DIQMTQSPASLSASVGDRVTITCQASQGISRSVNWYQQKPGKAPKLLIFDASHLERGVPSRFSGSGYGTDFTFTISSLQPEDIATYYCQQYDNLRISFGQGTRLEIK
notes: also called mAb MPV458; MPV458 IgG
B5: MPV364 (antibody, V domains shown)
VH: QVQLVQSGAEVKKPGASVKVSCKASGYTFTHDSIHWVRQAPGQRLEWMGWINVGNGDTKSSQKFQDRLTITRDTSANTAYMEVRSLKYEDTAMYFCARVDQYCIGGVCYGGKNWFDPWGQGTLVTVSS
VL: SYELNQPPSVSVAPGQTAMITCGGYYVGVKSLHWYQQKAGQAPVLVVHDDSDRPSGIPERFSGSKSGDTATLIISRVEAGDEADYYCQVWDRDSDHPYVFGTGTTVTVL
notes: also called mAb MPV364; hMPV364
B6: MPV314 (antibody, V domains shown)
VH: QVQLVQSGGGVVQPGRSLRLSCAASGFSFSDYGMDWVRQAPGKGLEWVAVISYDGSNQYYADSVKGRFTVSRDNSKNTVYLQMNSLRAEDTAVYFCAKDESRRYYYSSGIHSHWGQGTLVTVSS
VL: DIVMTQSPATLSVSPGERATLSCRASQSVSRNLAWYQQKPGQAPRLLIFGASTRATGIPARFSGSASGTEFTLTISSLQSEDFAVYYCHQYNYWPPGTFGQGTRLEIK
notes: also called mAb MPV314

What was measured:
hMPV B2 F [1] = target: T1, hMPV B2 F (human metapneumovirus)
hMPV A2 F [2] = target: T2, hMPV A2 F (human metapneumovirus)
hMPV A1 F [3] = target: T3, hMPV A1 F (human metapneumovirus)
hMPV B2 F-GCN4 dFP 6R = hMPV B2 F-GCN4 dFP 6R (human metapneumovirus)
hMPV B1 F [4] = target: T4, hMPV B1 F (human metapneumovirus)
hMPV 130-BV = target: T5, hMPV 130-BV (human metapneumovirus); assay: ELISA on coated antigen, mAb titrated; EC50 list entry 5 of 7 (marker of hMPV 130BV)
T5 construct: also called hMPV 130-BV F; hMPV F 130-BV

hMPV B2 F [5] = target: T1, hMPV B2 F; assay: ELISA on coated antigen, mAb titrated; EC50 box, key 4
hMPV B1 F [6] = target: T4, hMPV B1 F; assay: ELISA on coated antigen, mAb titrated; EC50 box, key 3
hMPV A2 F [7] = target: T2, hMPV A2 F; assay: ELISA on coated antigen, mAb titrated; EC50 box, key 2
hMPV A1 F [8] = target: T3, hMPV A1 F; assay: ELISA on coated antigen, mAb titrated; EC50 box, key 1
[9] = target: T6, monomeric hMPV B2 F protein treated with trypsin (human metapneumovirus); assay: ELISA on coated antigen, mAb titrated; panel hMPV B2 F monomer (trypsin), key 1
[10] = target: T7, trimeric hMPV B2 F protein treated with trypsin (human metapneumovirus); assay: ELISA on coated antigen, mAb titrated; panel hMPV B2 F trimer (trypsin), key 1
[11] = target: hMPV F protein of hMPV A2 strain CAN/97-83 (human metapneumovirus, UniProt Q6WB98 19-539); assay: cell-based or functional assay
[12] = target: hMPV F protein of hMPV B2 strain TN/93-32 (human metapneumovirus); assay: cell-based or functional assay
[13] = target: T6, monomeric hMPV B2 F protein treated …; assay: ELISA on coated antigen, mAb titrated; panel hMPV B2 F monomer (trypsin), key 2
[14] = target: T7, trimeric hMPV B2 F protein treated with …; assay: ELISA on coated antigen, mAb titrated; panel hMPV B2 F trimer (trypsin), key 2
[15] = target: T6, monomeric hMPV B2 F protein treated …; assay: ELISA on trypsin-treated monomeric and trimeric hMPV B2 F

Row | Binder | EC50 (hMPV B2 F [1]) | EC50 (hMPV B2 F GCN4) | EC50 (hMPV A2 F [2]) | EC50 (hMPV A1 F [3]) | EC50 (hMPV B2 F-GCN4 dFP 6R) | EC50 (hMPV B1 F [4]) | EC50 (hMPV 130-BV) | EC50 (hMPV B2 F [5]) | EC50 (hMPV B1 F [6]) | EC50 (hMPV A2 F [7]) | EC50 (hMPV A1 F [8]) | EC50 [9] | EC50 [10] | 50% inhibitory concentration (IC50), plaque neutralization [11] | 50% inhibitory concentration (IC50), plaque neutralization [12] | EC50 [13] | EC50 [14] | fold EC50, monomeric against trimeric hMPV B2 F [15] | IC50, plaque neutralization [11] | IC50, plaque neutralization [12]
1 | B1 | 36 µg/mL | 4.7 µg/mL | 4.3 µg/mL | 14 µg/mL | 5.9 µg/mL | 3.1 µg/mL | 1.8 µg/mL | – | – | – | – | – | – | – | – | – | – | – | – | –
2 | B2 | – | – | – | – | – | – | – | 0.089 µg/mL | 0.042 µg/mL | 0.14 µg/mL | 0.104 µg/mL | – | – | – | – | – | – | – | – | –
3 | B3 | 0.44 µg/mL | 0.18 µg/mL | 0.17 µg/mL | 0.27 µg/mL | 0.15 µg/mL | 0.12 µg/mL | 0.14 µg/mL | 0.136 µg/mL | 0.077 µg/mL | 0.204 µg/mL | 0.15 µg/mL | 0.091 µg/mL | 0.17 µg/mL | – | – | – | – | – | – | –
4 | B4 | 0.6 µg/mL | 0.2 µg/mL | 0.39 µg/mL | 0.75 µg/mL | 0.37 µg/mL | 0.39 µg/mL | 0.24 µg/mL | – | – | – | – | – | – | 0.033 µg/mL | 0.49 µg/mL | 0.25 µg/mL | 0.9 µg/mL | ~4 fold lower | – | –
5 | B5 | – | – | – | – | – | – | – | – | 0.2 µg/mL | 0.44 µg/mL | 0.25 µg/mL | – | – | – | – | – | – | – | 0.008 µg/mL | 0.018 µg/mL
6 | B6 | – | – | – | – | – | – | – | – | 0.039 µg/mL | 0.102 µg/mL | 0.096 µg/mL | – | – | – | – | – | – | – | – | –
